B1: scFv; the commonest letter at each place (parent)
chain 1: EVKLDETGGGLVQPGRPMKLSCVASGFTFSDYWMNWVRQSPEKGLEWVAQIRNKPYNYETYYSDSVKGRFTISRDDSKSSVYLQMNNLRVEDMGIYYCTGSYYGMDYWGQGTSVTVS
chain 2: DVVMTQTPLSLPVSLGDQASISCRSSQSLVHSNGNTYLRWYLQKPGQSPKVLIYKVSNRFSGVPDRFSGSGSGTDFTLKISRVEAEDLGVYFCSQSTHVPWTFGGGTKLEIK

Experiments:
[1] = variants of: B1; assay: Kd (Tite-Seq); details: with fluorescein; format: scFv 4-4-20, heavy + light
[2] = variants of: B1; assay: yeast surface expression (ratio to wild type); higher = more expressed; details: format: scFv 4-4-20, heavy + light

Variant	Kd [1]	yeast surface expression [2]
chain 1 W33L V37D	1.47 µM	0.591
chain 1 Y32L V37R	≥ 10 µM	0.0981
chain 1 F29L M34W	≥ 10 µM	0.795
chain 1 Y107R G109H	≥ 10 µM	0.277
chain 1 D106W Y107I	≥ 10 µM	0.31
chain 1 W108D G109Y	≥ 10 µM	0.271
chain 1 W33D M34W	≥ 10 µM	1.03
chain 1 G104F D106G	≥ 10 µM	0.169
chain 1 S30H D31K	0.00468 µM	0.668
chain 1 Y102E G109K	≥ 10 µM	0.317
chain 1 D106K W108G	≥ 10 µM	0.276
chain 1 Y32Q M34G V37K	≥ 10 µM	1.04
chain 1 Y102I Y103W	0.0015 µM	1.15
chain 1 Y32F M34Q	≥ 10 µM	0.502
chain 1 T28K Y32V	≥ 10 µM	0.858
chain 1 W33E M34L	≥ 10 µM	0.721
chain 1 F29A W33I	≥ 10 µM	0.852
chain 1 M105D D106T	≥ 10 µM	0.588
chain 1 G100K G109V	≥ 10 µM	0.188
chain 1 D106R Y107D	≥ 10 µM	0.462
chain 1 S30M V37M	0.000504 µM	0.887
chain 1 D31E Y32P	≥ 10 µM	0.77
chain 1 Y107K	≥ 10 µM	0.637
chain 1 Y107E	1.72 µM	0.803
chain 1 F29P D31I	≥ 10 µM	0.679
chain 1 S101Q G109S	≥ 10 µM	0.645

Variant	Kd [1]	yeast surface expression [2]
chain 1 G100N	≥ 10 µM	0.668
chain 1 G100L G104Q W108M	≥ 10 µM	0.343
chain 1 F29A M34K V37T	≥ 10 µM	0.628
chain 1 T28M S30L	0.0107 µM	0.725
chain 1 T28H S30G	0.00122 µM	1.04
chain 1 Y103K G109W	≥ 10 µM	0.123
chain 1 S30H W36M	2.34 µM	0.564
chain 1 T28K W36R	0.0507 µM	0.393
chain 1 D31Y W33R	≥ 10 µM	0.325
chain 1 S101V M105H	≥ 10 µM	0.496
chain 1 S30F V37M	0.00128 µM	0.669
chain 1 Y32E	≥ 10 µM	0.927
chain 1 Y107I G109K	≥ 10 µM	0.234
chain 1 T28G F29R Y32K	≥ 10 µM	0.507
chain 1 Y102R G109L	≥ 10 µM	0.279
chain 1 F29G Y32Q	≥ 10 µM	0.991
chain 1 Y102Q Y103A	8.13 µM	0.994
chain 1 G100A W108Y	≤ 0.000316 µM	0.892
chain 1 W108K	0.0221 µM	0.504
chain 1 W108G	0.102 µM	0.48
chain 1 W108P	0.00272 µM	0.625
chain 1 F29V D31E	1.47 µM	0.753
chain 1 T28L F29N	≥ 10 µM	0.821
chain 1 G104A D106Q	≥ 10 µM	0.575
chain 1 M34T W36Y	≥ 10 µM	0.649
chain 1 V37Q	0.00194 µM	0.731

Variant	Kd [1]	yeast surface expression [2]
chain 1 Y102F G109H	≥ 10 µM	0.186
chain 1 Y32N M34V	≥ 10 µM	0.683
chain 1 Y102T	0.00894 µM	0.932
chain 1 Y102I	0.00279 µM	1.16
chain 1 G100V S101I	≥ 10 µM	0.653
chain 1 S101P Y102V W108C	≥ 10 µM	0.1
chain 1 S101P D106G W108F	≥ 10 µM	0.244
chain 1 T28A Y32T	≥ 10 µM	1.2
chain 1 T28A Y32H	0.0318 µM	0.717
chain 1 S30G M34R	0.00199 µM	–
chain 1 Y103K D106M	≥ 10 µM	0.716
chain 1 F29L Y32F	≥ 10 µM	0.72
chain 1 F29N V37G	≥ 10 µM	0.135
chain 1 S101C Y103L	≥ 10 µM	0.522
chain 1 G104T W108A	≥ 10 µM	0.326
chain 1 S101R	≥ 10 µM	0.731
chain 1 W36C	≥ 10 µM	0.561
chain 1 W36S	≥ 10 µM	0.813
chain 1 T28W F29P S30F	≥ 10 µM	0.601
chain 1 F29K Y32G	≥ 10 µM	0.778
chain 1 G100K D106S	≥ 10 µM	0.303
chain 1 M34G W36M	≥ 10 µM	1.94
chain 1 W36F V37C	0.000454 µM	0.75
chain 1 M105P Y107H	≥ 10 µM	0.635

Now from value to variant, other results behind:

Kd [1]	Variant	yeast surface expression [2]
≥ 10 µM	chain 1 D31Q W36V	0.596
0.0166 µM	chain 1 Y103E	0.857
2.01 µM	chain 1 Y102Q Y107H	1.01
≥ 10 µM	chain 1 G104P Y107M G109M	0.257
≥ 10 µM	chain 1 W33I M34F	1
≥ 10 µM	chain 1 T28Y N35E	0.319
≥ 10 µM	chain 1 F29L W33Y	0.732
≥ 10 µM	chain 1 M105N G109A	0.467
≥ 10 µM	chain 1 W33Q N35E	0.594
≥ 10 µM	chain 1 S30T N35Q	0.831
0.0318 µM	chain 1 Y102R M105N	0.764
≥ 10 µM	chain 1 N35M V37Y	0.798
≥ 10 µM	chain 1 G104D W108Q	0.249
≥ 10 µM	chain 1 S30C W33L	0.696
0.676 µM	chain 1 Y107I	0.995
0.0372 µM	chain 1 Y107M	0.921
≥ 10 µM	chain 1 G100R Y103V W108N	0.274
≥ 10 µM	chain 1 G100D	0.453
1.26 µM	chain 1 Y103D Y107N	1.12
≥ 10 µM	chain 1 M105N D106P	0.2

Kd [1]	Variant	yeast surface expression [2]
≥ 10 µM	chain 1 S101T Y102H	0.748
≥ 10 µM	chain 1 F29N W36L	0.472
≥ 10 µM	chain 1 Y32I W36Y	0.612
≥ 10 µM	chain 1 Y32T V37H	0.624
≥ 10 µM	chain 1 G104Q M105C	0.62
0.00993 µM	chain 1 Y32A	1.15
0.0729 µM	chain 1 Y102F Y103I	0.793
≥ 10 µM	chain 1 W108P G109N	0.473
0.000333 µM	chain 1 V37M	0.958
≥ 10 µM	chain 1 S101M D106G	0.323
≥ 10 µM	chain 1 T28C W33L	0.742
≥ 10 µM	chain 1 S101K D106V	0.257
≥ 10 µM	chain 1 Y102F G104H	0.927
≥ 10 µM	chain 1 Y103E W108D	0.473
≥ 10 µM	chain 1 W33N V37Q	0.415
≥ 10 µM	chain 1 Y32R W33H W36S	0.723
3.74 µM	chain 1 D31C W33K	0.675
≥ 10 µM	chain 1 S101C Y107C	0.493
≥ 10 µM	chain 1 T28V F29D	0.952
0.676 µM	chain 1 D31V M34E	2.76
